Data as given in article doi:10.1101/2022.08.17.504347 (bioRxiv, 2022).

Tests used:
[1] = molecular target: chicken CENP-C^677-864 (C-terminus of chicken CENP-C including the Cupin domain) (chicken); assay: crystal structure
native gel or EMSA = molecular target: the molecule itself; assay: native gel or EMSA

Row | stoichiometry N [1] | Molecule | binding result (native gel or EMSA)
1 | 2 | chicken CENP-C^677-864 (C-terminus of chicken CENP-C including the Cupin domain) (domain or fragment) | –
2 | – | human CENP-C fragment hCENP-C^760-943 (C-terminus of hCENP-C, wild type) (domain or fragment, UniProt Q03188-1 760-943, looked up) GRPSGGFVISGVLSPDTISSKRKAKENIGKVNKKSNKKRICLDNDERKTNLMVNLGIPLGDPLQPTRVKDPETREIILMDLVRPQDTYQFFVKHGELKVYKTLDTPFFSTGKLILGPQEEKGKQHVGQDILVFYVNFGDLLCTLHETPYILSTGDSFYVPSGNYYNIKNLRNEESVLLFTQIKR | binds
